± gives the uncertainty stated by the source.
Test: self-splicing fitness, log relative to wild type (ln ratio); higher = more splicing; Tetrahymena group I intron in knt gene, E. coli kanamycin selection, DiMSum; sequences stand for … in CUCUCU…GGAGGGAAAAGUUAUCAGGCAUGCACCUGGUAGCUAGUCUUUAAACCAAUAGAUUGCAUCGGUUUAAAAGGCAAGACCGUCAAAUUGCGGGAAAGGGGUCAACAGCCGUUCAGUACCAAGUCUCAGGGGAAACUUUGAGAUGGCCUUGCAAAGGGUAUGGUAAUAAGCUGACGGACAUGGUCCUAACCACGCAGCCAAGUCCUAAGUCAACAGAUCUUCUGUUGAUAUGGAUGCAGUUCACAGACUAAAUGUCGGUCGGGGAAGAUGUAUUCUUCUCAUAAGAUAUAGUCGGACCUCUCCUUAAUGGGAGCUAGCGGAUGAAGUGAUGCAACACUGGAGCCGCUGGGAACUAAUUUGUAUGCGAAAGUAUAUUGAUUAGUUUUGGAGUACUCGUGGUCG
Method in brief: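 Pooled colonies went to amplicon sequencing on an Illumina HiSeq 2500 after six replicate transformations. The plates were LB agar with 100 μg/mL carbenicillin, 50 μM IPTG and 0.2% rhamnose, with or without 25 μg/mL kanamycin, incubated overnight at 37°C or 30°C. The E. coli BL21(DE3) library had all eight P1ex-region intron nucleotides randomised, the intron placed in the knt kanamycin-resistance gene on pET-22b(+). DiMSum fitness is the error-weighted combination of replicate fold changes, kanamycin against none, normalised to wild type.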

## CGCGAGCAAUAUUACGCCUC
30 °C
  self-splicing fitness (ln): -1.53 ± 0.44
37 °C
  self-splicing fitness (ln): -1.38 ± 0.43

## CGCGAGCAAUAUUACGCGGG
30 °C
  self-splicing fitness (ln): -3.4 ± 0.17
37 °C
  self-splicing fitness (ln): -3.6 ± 0.25

## CGCGAGCAAUAUUACGCUAG
37 °C
  self-splicing fitness (ln): -1.39 ± 0.29

## CGCGAGCAAUAUUACGCUCU
37 °C
  self-splicing fitness (ln): -0.833 ± 0.33

## CGCGAGCAAUAUUACGCUUC
37 °C
  self-splicing fitness (ln): -1.44 ± 0.45

## CGCGAGCAAUAUUACGGACA
37 °C
  self-splicing fitness (ln): -0.573 ± 0.34

## CGCGAGCAAUAUUACGGAGU
30 °C
  self-splicing fitness (ln): -4.33 ± 0.46
37 °C
  self-splicing fitness (ln): -2.08 ± 0.21

## CGCGAGCAAUAUUACGGAUU
30 °C
  self-splicing fitness (ln): -3.12 ± 0.17
37 °C
  self-splicing fitness (ln): -2.51 ± 0.25

## CGCGAGCAAUAUUACGGCCG
30 °C
  self-splicing fitness (ln): -3.16 ± 0.3
37 °C
  self-splicing fitness (ln): -1.35 ± 0.29

## CGCGAGCAAUAUUACGUAGC
30 °C
  self-splicing fitness (ln): -3.66 ± 0.3
37 °C
  self-splicing fitness (ln): -2.5 ± 0.32

## CGCGAGCAAUAUUACGUAUG
30 °C
  self-splicing fitness (ln): -1.62 ± 0.13
37 °C
  self-splicing fitness (ln): -1.2 ± 0.19

## CGCGAGCAAUAUUACGUCAA
30 °C
  self-splicing fitness (ln): -2.88 ± 0.31

## CGCGAGCAAUAUUACGUCUC
30 °C
  self-splicing fitness (ln): -3.71 ± 0.35
37 °C
  self-splicing fitness (ln): -2.28 ± 0.33

## CGCGAGCAAUAUUACGUGAC
37 °C
  self-splicing fitness (ln): -2.54 ± 0.3

## CGCGAGCAAUAUUACGUGCG
37 °C
  self-splicing fitness (ln): -3.3 ± 0.47

## CGCUAGCAAUAUUACGAGGU
30 °C
  self-splicing fitness (ln): -3.83 ± 0.31
37 °C
  self-splicing fitness (ln): -2.58 ± 0.23

## CGCUAGCAAUAUUACGAUAU
30 °C
  self-splicing fitness (ln): -3.98 ± 0.36
37 °C
  self-splicing fitness (ln): -2.63 ± 0.25

## CGCUAGCAAUAUUACGAUGC
30 °C
  self-splicing fitness (ln): -4.31 ± 0.46
37 °C
  self-splicing fitness (ln): -2.58 ± 0.36

## CGCUAGCAAUAUUACGCGGC
30 °C
  self-splicing fitness (ln): -3.25 ± 0.35
37 °C
  self-splicing fitness (ln): -3.1 ± 0.29

## CGCUAGCAAUAUUACGCUGG
30 °C
  self-splicing fitness (ln): -2.63 ± 0.28
37 °C
  self-splicing fitness (ln): -1.85 ± 0.36

## CGCUAGCAAUAUUACGCUUG
30 °C
  self-splicing fitness (ln): -3.3 ± 0.27
37 °C
  self-splicing fitness (ln): -3 ± 0.4

## CGCUAGCAAUAUUACGGAAU
30 °C
  self-splicing fitness (ln): -3.52 ± 0.28
37 °C
  self-splicing fitness (ln): -2.02 ± 0.26

## CGCUAGCAAUAUUACGGAUA
30 °C
  self-splicing fitness (ln): -2.99 ± 0.17
37 °C
  self-splicing fitness (ln): -2.14 ± 0.22

## CGCUAGCAAUAUUACGGAUG
30 °C
  self-splicing fitness (ln): -1.13 ± 0.075
37 °C
  self-splicing fitness (ln): -0.108 ± 0.096

## CGCUAGCAAUAUUACGGCCU
30 °C
  self-splicing fitness (ln): -0.677 ± 0.073
37 °C
  self-splicing fitness (ln): -0.609 ± 0.1

## CGCUAGCAAUAUUACGGGCC
30 °C
  self-splicing fitness (ln): -2.29 ± 0.17
37 °C
  self-splicing fitness (ln): -1.92 ± 0.19

## CGCUAGCAAUAUUACGGUGA
30 °C
  self-splicing fitness (ln): -2.28 ± 0.14
37 °C
  self-splicing fitness (ln): -0.996 ± 0.11

## CGCUAGCAAUAUUACGUACU
30 °C
  self-splicing fitness (ln): -2.86 ± 0.15
37 °C
  self-splicing fitness (ln): -0.0116 ± 0.18

## CGCUAGCAAUAUUACGUAGU
30 °C
  self-splicing fitness (ln): -3.48 ± 0.13
37 °C
  self-splicing fitness (ln): -1.34 ± 0.12

## CGCUAGCAAUAUUACGUUGU
30 °C
  self-splicing fitness (ln): -3.3 ± 0.2
37 °C
  self-splicing fitness (ln): -1.59 ± 0.18

## CGGAAGCAAUAUUACGAACA
30 °C
  self-splicing fitness (ln): -1.18 ± 0.12
37 °C
  self-splicing fitness (ln): -0.826 ± 0.13

## CGGAAGCAAUAUUACGACAG
30 °C
  self-splicing fitness (ln): -0.256 ± 0.17
37 °C
  self-splicing fitness (ln): 0.0808 ± 0.23

## CGGAAGCAAUAUUACGACCU
30 °C
  self-splicing fitness (ln): 0.28 ± 0.096
37 °C
  self-splicing fitness (ln): 0.399 ± 0.11

## CGGAAGCAAUAUUACGACGG
30 °C
  self-splicing fitness (ln): -0.101 ± 0.13
37 °C
  self-splicing fitness (ln): -0.695 ± 0.14

## CGGAAGCAAUAUUACGAGAG
30 °C
  self-splicing fitness (ln): -3.45 ± 0.49
37 °C
  self-splicing fitness (ln): -1.65 ± 0.26

— the supplement of paper PMC7877785
